In publication PMC6886295, “The iron–sulfur‐containing HypC‐HypD scaffold complex of the [NiFe]‐hydrogenase maturation machinery is an ATPase” (FEBS Open Bio, 2019):

Columns and labels:
HypD = target: T1, HypD (Escherichia coli, UniProt P24192, C41A); assay: HPLC (ZIC-HILIC) ADP formation, specific activity; assay type: biochemical; conditions: 50 mM HEPES, 2 mM MgCl2, pH 7.4, 37 °C, 500 μM ATP; protein alone
T1 construct: Strep-tagged HypD (plasmid pIBA5hypDWT), [4Fe-4S] protein, overproduced and anaerobically purified from E. coli BEF314 (delta hypB-E)
T1 sequence (P24192 whole entry C41A): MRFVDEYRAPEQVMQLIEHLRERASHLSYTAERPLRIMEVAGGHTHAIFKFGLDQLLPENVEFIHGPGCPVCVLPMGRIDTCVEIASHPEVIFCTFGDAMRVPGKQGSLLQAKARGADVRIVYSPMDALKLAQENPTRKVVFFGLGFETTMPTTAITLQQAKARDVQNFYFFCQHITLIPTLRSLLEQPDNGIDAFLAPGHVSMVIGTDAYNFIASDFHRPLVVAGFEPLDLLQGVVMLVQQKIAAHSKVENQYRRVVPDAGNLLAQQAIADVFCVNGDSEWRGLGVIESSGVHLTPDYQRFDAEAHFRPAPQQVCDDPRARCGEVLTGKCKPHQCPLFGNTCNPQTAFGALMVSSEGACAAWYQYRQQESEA

[1] = substrate: Nc1ncnc2c1ncn2[C@@H]1O[C@H](COP(=O)(O)OP(=O)(O)OP(=O)(O)O)[C@@H](O)[C@H]1O; assay: HPLC (ZIC-HILIC) ADP formation, Michaelis-Menten fit; assay type: biochemical, Escherichia coli; conditions: 50 mM HEPES, 2 mM MgCl2, pH 7.4, 37 °C, protein alone
Text: HPLC (ZIC-HILIC) ADP formation, Michaelis-Menten fit on HybG

[2] = substrate: Nc1ncnc2c1ncn2[C@@H]1O[C@H](COP(=O)(O)OP(=O)(O)OP(=O)(O)O)[C@@H](O)[C@H]1O; assay: as above; assay type: biochemical, Escherichia coli; conditions: 50 mM HEPES, 2 mM MgCl2, pH 7.4, 37 °C, protein alone; remark: listed apart in the source
Text: HPLC (ZIC-HILIC) ADP formation, Michaelis-Menten fit on HypC

[3] = substrate: Nc1ncnc2c1ncn2[C@@H]1O[C@H](COP(=O)(O)OP(=O)(O)OP(=O)(O)O)[C@@H](O)[C@H]1O; assay: as above; assay type: biochemical, Escherichia coli; conditions: 50 mM HEPES, 2 mM MgCl2, pH 7.4, 37 °C, as-isolated complex
Text: HPLC (ZIC-HILIC) ADP formation, Michaelis-Menten fit on HypC-HypD complex

[4] = substrate: Nc1ncnc2c1ncn2[C@@H]1O[C@H](COP(=O)(O)OP(=O)(O)OP(=O)(O)O)[C@@H](O)[C@H]1O; assay: as above; assay type: biochemical, Escherichia coli; conditions: 50 mM HEPES, 2 mM MgCl2, pH 7.4, 37 °C, protein alone; remark: listed apart in the source
Text: HPLC (ZIC-HILIC) ADP formation, Michaelis-Menten fit on HypD

[5] = substrate: Nc1ncnc2c1ncn2[C@@H]1O[C@H](COP(=O)(O)OP(=O)(O)OP(=O)(O)O)[C@@H](O)[C@H]1O; assay: as above; assay type: biochemical, Escherichia coli; conditions: 50 mM HEPES, 2 mM MgCl2, pH 7.4, 37 °C, as-isolated complex; remark: listed apart in the source
Text: HPLC (ZIC-HILIC) ADP formation, Michaelis-Menten fit on HybG-HypD complex

Nc1ncnc2c1ncn2[C@@H]1O[C@H](COP(=O)(O)OP(=O)(O)OP(=O)(O)O)[C@@H](O)[C@H]1O [ATP]
HPLC (ZIC-HILIC) ADP formation, specific activity (HypD): The HypDC41A variant on its own had an ATPase activity

B1: HybG (Escherichia coli K-12) (protein)
chain: MCIGVPGQVLAVGEDIHQLAQVEVCGIKRDVNIALICEGNPADLLGQWVLVHVGFAMSIIDEDEAKATLDALRQMDYDITSA
notes: Strep-tagged HybG (plasmid pIBA3hybGWT), anaerobically purified from E. coli BEF314 (delta hypB-E)
Km [1]: 475.67 ± 29.91 µM | Vmax [1]: 0.56 µmol/min/mg

B2: HypC (Escherichia coli K-12) (protein)
chain: CIGVPGQIRTIDGNQAKVDVCGIQRDVDLTLVGSCDENGQPRVGQWVLVHVGFAMSVINEAEARDTLDALQNMFDVEPDVGALLYGEEK
notes: Strep-tagged HypC (plasmid pIBA3hypCStrep), anaerobically purified from E. coli BEF314 (delta hypB-E)
Km [2]: 235.72 ± 71.15 µM | Vmax [2]: 0.234 µmol/min/mg

B3: HypC-HypD complex (Escherichia coli K-12) (protein)
chain 1: MRFVDEYRAPEQVMQLIEHLRERASHLSYTAERPLRIMEVCGGHTHAIFKFGLDQLLPENVEFIHGPGCPVCVLPMGRIDTCVEIASHPEVIFCTFGDAMRVPGKQGSLLQAKARGADVRIVYSPMDALKLAQENPTRKVVFFGLGFETTMPTTAITLQQAKARDVQNFYFFCQHITLIPTLRSLLEQPDNGIDAFLAPGHVSMVIGTDAYNFIASDFHRPLVVAGFEPLDLLQGVVMLVQQKIAAHSKVENQYRRVVPDAGNLLAQQAIADVFCVNGDSEWRGLGVIESSGVHLTPDYQRFDAEAHFRPAPQQVCDDPRARCGEVLTGKCKPHQCPLFGNTCNPQTAFGALMVSSEGACAAWYQYRQQESEA
chain 2: CIGVPGQIRTIDGNQAKVDVCGIQRDVDLTLVGSCDENGQPRVGQWVLVHVGFAMSVINEAEARDTLDALQNMFDVEPDVGALLYGEEK
notes: heterodimer, HypC Strep-tagged (pT7-7hypD-hypCStrep), anaerobically co-purified from E. coli MC4100 or BEF314
Km [3]: 143.48 ± 55.10 µM | Vmax [3]: 0.995 µmol/min/mg

B4: HypD (Escherichia coli K-12) (protein)
chain: MRFVDEYRAPEQVMQLIEHLRERASHLSYTAERPLRIMEVCGGHTHAIFKFGLDQLLPENVEFIHGPGCPVCVLPMGRIDTCVEIASHPEVIFCTFGDAMRVPGKQGSLLQAKARGADVRIVYSPMDALKLAQENPTRKVVFFGLGFETTMPTTAITLQQAKARDVQNFYFFCQHITLIPTLRSLLEQPDNGIDAFLAPGHVSMVIGTDAYNFIASDFHRPLVVAGFEPLDLLQGVVMLVQQKIAAHSKVENQYRRVVPDAGNLLAQQAIADVFCVNGDSEWRGLGVIESSGVHLTPDYQRFDAEAHFRPAPQQVCDDPRARCGEVLTGKCKPHQCPLFGNTCNPQTAFGALMVSSEGACAAWYQYRQQESEA
notes: Strep-tagged HypD (plasmid pIBA5hypDWT), [4Fe-4S] protein, overproduced and anaerobically purified from E. coli BEF314 (delta hypB-E)
Km [4]: 364.48 ± 100.16 µM | Vmax [4]: 0.398 µmol/min/mg

B5: HybG-HypD complex (Escherichia coli K-12) (protein)
chain 1: MRFVDEYRAPEQVMQLIEHLRERASHLSYTAERPLRIMEVCGGHTHAIFKFGLDQLLPENVEFIHGPGCPVCVLPMGRIDTCVEIASHPEVIFCTFGDAMRVPGKQGSLLQAKARGADVRIVYSPMDALKLAQENPTRKVVFFGLGFETTMPTTAITLQQAKARDVQNFYFFCQHITLIPTLRSLLEQPDNGIDAFLAPGHVSMVIGTDAYNFIASDFHRPLVVAGFEPLDLLQGVVMLVQQKIAAHSKVENQYRRVVPDAGNLLAQQAIADVFCVNGDSEWRGLGVIESSGVHLTPDYQRFDAEAHFRPAPQQVCDDPRARCGEVLTGKCKPHQCPLFGNTCNPQTAFGALMVSSEGACAAWYQYRQQESEA
chain 2: MCIGVPGQVLAVGEDIHQLAQVEVCGIKRDVNIALICEGNPADLLGQWVLVHVGFAMSIIDEDEAKATLDALRQMDYDITSA
notes: heterodimer, HybG Strep-tagged (hypDEFhybGStrep plasmid), anaerobically co-purified from E. coli MC4100; small amounts of HypE occasionally co-purify
Km [5]: 34.78 ± 8.77 µM | Vmax [5]: 1.42 µmol/min/mg
